Data reported in PMC2965227.
Like-named read-outs stand apart in the source and are kept apart here.

B1: LEF1 P2 wild-type probe (+13 to +37) (dsDNA)
DNA 1: AAAGCATCCAGATGGAGGCCTCTAC
DNA 2: GTAGAGGCCTCCATCTGGATGCTTT
B2: LEF1 P2 YY1-site mutant probe (ATG to CGT) (dsDNA)
DNA 1: AAAGCATCCAGCGTGAGGCCTCTAC
DNA 2: GTAGAGGCCTCACGCTGGATGCTTT

What was measured:
[1] = target: T1, YY1 (Yin Yang 1) (human, UniProt P25490 1-414); assay: EMSA
[2] = target: T1, YY1 (Yin Yang 1); assay: EMSA; remark: listed apart in the source

T1 sequence (P25490 whole entry): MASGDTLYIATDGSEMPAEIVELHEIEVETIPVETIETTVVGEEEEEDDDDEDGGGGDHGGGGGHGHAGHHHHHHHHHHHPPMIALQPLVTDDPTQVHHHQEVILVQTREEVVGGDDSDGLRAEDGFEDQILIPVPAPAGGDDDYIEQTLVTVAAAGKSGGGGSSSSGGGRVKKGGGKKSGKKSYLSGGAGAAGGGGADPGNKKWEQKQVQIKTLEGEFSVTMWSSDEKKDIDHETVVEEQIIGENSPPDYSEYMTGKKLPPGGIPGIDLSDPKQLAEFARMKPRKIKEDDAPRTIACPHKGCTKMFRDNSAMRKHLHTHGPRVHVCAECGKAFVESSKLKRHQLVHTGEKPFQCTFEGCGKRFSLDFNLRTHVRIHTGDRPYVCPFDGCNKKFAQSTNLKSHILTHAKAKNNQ

Binder | binding result [1] | binding result [2]
B1 | binds | 
B2 |  | no binding
